Experimental data as given in article PMC11480506.

Key:
[1] = target: IRE1α LD 312TLPL315-GSGS mutant (human) (UniProt O75460); test: AUC; sedimentation velocity (AUC-SV), 25 µM protein
[2] = target: IRE1α LD 352LNYL355-GSGS mutant (human) (UniProt O75460); test: as above
[3] = target: human IRE1α lumenal domain (IRE1α LD, aa 24-443) (human) (UniProt O75460); test: fluorescence polarisation; fluorescence anisotropy of N-terminal fluorescein labeled peptide with IRE1α LD; n = 2 independent experiments
[4] = target: mCherry-IRE1α LD 312TLPL315-GSGS-10His (human) (UniProt O75460); test: mass photometry; protein tethered by C-terminal 10His to supported lipid bilayers (99 mol% POPC, 1 mol% Ni-NTA lipids); 75 nM protein; 25 mM HEPES pH 7.3, 150 mM NaCl, 250 µM TCEP
[5] = target: mCherry-IRE1α LD 312TLPL315-GSGS-10His (human) (UniProt O75460); test: mass photometry; protein tethered by C-terminal 10His to supported lipid bilayers (99 mol% POPC, 1 mol% Ni-NTA lipids); 100 nM protein; 25 mM HEPES pH 7.3, 150 mM NaCl, 250 µM TCEP
[6] = target: mCherry-IRE1α LD 352LNYL355-GSGS-10His (human) (UniProt O75460); test: mass photometry; protein tethered by C-terminal 10His to supported lipid bilayers (99 mol% POPC, 1 mol% Ni-NTA lipids); 75 nM protein; 25 mM HEPES pH 7.3, 150 mM NaCl, 250 µM TCEP
[7] = target: mCherry-IRE1α LD 352LNYL355-GSGS-10His (human) (UniProt O75460); test: mass photometry; protein tethered by C-terminal 10His to supported lipid bilayers (99 mol% POPC, 1 mol% Ni-NTA lipids); 100 nM protein; 25 mM HEPES pH 7.3, 150 mM NaCl, 250 µM TCEP
[8] = target: mCherry-IRE1α LD-10His (human) (UniProt O75460); test: mass photometry; protein tethered by C-terminal 10His to supported lipid bilayers (99 mol% POPC, 1 mol% Ni-NTA lipids); 75 nM protein; 25 mM HEPES pH 7.3, 150 mM NaCl, 250 µM TCEP
[9] = target: mCherry-IRE1α LD-10His (human) (UniProt O75460); test: mass photometry; protein tethered by C-terminal 10His to supported lipid bilayers (99 mol% POPC, 1 mol% Ni-NTA lipids); 100 nM protein; 25 mM HEPES pH 7.3, 150 mM NaCl, 250 µM TCEP

UniProt O75460, sequence (O75460 24-443): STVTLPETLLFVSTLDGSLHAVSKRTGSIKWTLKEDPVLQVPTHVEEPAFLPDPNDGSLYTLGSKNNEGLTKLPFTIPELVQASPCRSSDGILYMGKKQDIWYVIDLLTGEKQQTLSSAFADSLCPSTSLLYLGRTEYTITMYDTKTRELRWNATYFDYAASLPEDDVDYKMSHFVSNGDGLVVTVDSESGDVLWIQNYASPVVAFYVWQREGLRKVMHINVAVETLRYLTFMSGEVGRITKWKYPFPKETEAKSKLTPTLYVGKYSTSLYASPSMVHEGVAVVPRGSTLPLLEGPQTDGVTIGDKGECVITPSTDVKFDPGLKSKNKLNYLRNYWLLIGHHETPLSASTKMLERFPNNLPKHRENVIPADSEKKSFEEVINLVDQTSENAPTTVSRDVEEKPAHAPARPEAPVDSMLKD

Substance “IRE1α LD 312TLPL315-GSGS mutant (from UniProt O75460 24-443) (domain or fragment)” has a stoichiometry N [1] of 2.

Substance “IRE1α LD 352LNYL355-GSGS mutant (from UniProt O75460 24-443) (domain or fragment)” has a stoichiometry N [2] of 2.

Work on “MPZ1N-2X, model unfolded polypeptide (two MPZ1N 12mers in tandem), N-terminal fluorescein labeled” yielded a Kd [3] of 2000 nM.

“mCherry-IRE1α LD 312TLPL315-GSGS-10His (from UniProt O75460 24-443) (domain or fragment)” was tested, and the stoichiometry N [4] was 2 and the stoichiometry N [5] was 2.

Substance “mCherry-IRE1α LD 352LNYL355-GSGS-10His (from UniProt O75460 24-443) (domain or fragment)” has a stoichiometry N [6] of 2 and a stoichiometry N [7] of 2.

In the case of “mCherry-IRE1α LD-10His (from UniProt O75460 24-443) (domain or fragment)”, the stoichiometry N [8] is reported as 2 and the stoichiometry N [9] is reported as 2.
